What all share (assay): EC50 of free RNA motif oligo competing protein binding to immobilised probe
Data set [1] concerns the target T1, CMTR1 (UniProt Q8N1G2).
T1 sequence: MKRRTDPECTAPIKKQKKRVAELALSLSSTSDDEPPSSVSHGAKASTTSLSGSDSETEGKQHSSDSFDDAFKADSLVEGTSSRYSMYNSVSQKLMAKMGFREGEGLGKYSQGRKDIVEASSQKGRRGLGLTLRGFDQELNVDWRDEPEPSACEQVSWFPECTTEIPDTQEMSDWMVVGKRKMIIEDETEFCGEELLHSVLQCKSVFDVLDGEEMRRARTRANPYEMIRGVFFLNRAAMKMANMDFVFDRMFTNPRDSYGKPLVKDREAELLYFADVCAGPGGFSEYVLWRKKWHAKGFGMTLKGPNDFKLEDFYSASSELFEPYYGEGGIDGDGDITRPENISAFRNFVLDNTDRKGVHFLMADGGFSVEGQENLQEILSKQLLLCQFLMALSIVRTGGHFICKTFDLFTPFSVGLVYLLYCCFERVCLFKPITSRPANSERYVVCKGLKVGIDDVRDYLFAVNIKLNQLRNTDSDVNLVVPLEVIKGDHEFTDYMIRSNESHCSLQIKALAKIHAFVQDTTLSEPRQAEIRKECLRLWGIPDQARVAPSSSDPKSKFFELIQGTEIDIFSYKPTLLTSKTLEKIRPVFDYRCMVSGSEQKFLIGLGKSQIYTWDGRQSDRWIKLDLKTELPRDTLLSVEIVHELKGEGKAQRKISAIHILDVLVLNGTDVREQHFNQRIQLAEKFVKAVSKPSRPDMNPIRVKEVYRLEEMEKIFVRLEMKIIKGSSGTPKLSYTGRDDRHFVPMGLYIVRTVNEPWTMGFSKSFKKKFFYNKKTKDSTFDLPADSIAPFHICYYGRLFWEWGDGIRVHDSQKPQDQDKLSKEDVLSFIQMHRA
In short, it runs like this: (§1)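 HEK293-FT lysate (2.5 mg protein/well) was treated with free RNA oligos (0 nM to 30 μM) for 1 h at 4°C, then with the same oligos on NHS-Sepharose beads for 30 min at 4°C. Bound proteins were quantified by label-free LC-MS/MS relative to the control. EC50 came from a four-parameter log-logistic fit, and Kd is EC50 times a protein-dependent depletion factor.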

For data set [2], the target named is T2, SRSF3 (UniProt P84103).
T2 sequence: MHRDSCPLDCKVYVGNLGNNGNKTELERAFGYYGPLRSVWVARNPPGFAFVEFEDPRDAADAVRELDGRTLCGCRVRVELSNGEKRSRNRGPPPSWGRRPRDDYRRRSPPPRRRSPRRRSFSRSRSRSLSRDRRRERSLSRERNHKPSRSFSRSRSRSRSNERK
An outline of the steps: as §1

The target in data set [3] is T3, RBM17 (UniProt Q96I25).
T3 sequence: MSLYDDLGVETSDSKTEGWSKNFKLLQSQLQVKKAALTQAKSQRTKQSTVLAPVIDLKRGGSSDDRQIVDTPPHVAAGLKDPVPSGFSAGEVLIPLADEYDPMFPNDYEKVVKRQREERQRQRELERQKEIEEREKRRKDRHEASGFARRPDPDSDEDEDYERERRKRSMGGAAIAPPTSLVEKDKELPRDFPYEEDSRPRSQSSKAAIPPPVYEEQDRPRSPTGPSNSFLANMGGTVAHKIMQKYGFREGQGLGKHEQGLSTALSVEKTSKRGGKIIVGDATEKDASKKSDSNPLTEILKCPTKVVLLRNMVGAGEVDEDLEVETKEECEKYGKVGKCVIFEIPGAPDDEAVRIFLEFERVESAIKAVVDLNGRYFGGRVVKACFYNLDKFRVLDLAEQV
In short, it runs like this: as §1

We go through three sequences from the supplement of paper PMC6379048.

One may read the EC50 as the concentration giving half of the maximal effect. The low end stands for a more potent agent, the high end for a less potent agent.

AAUAAA: the values for the EC50 in data set [1], in data set [2] and in data set [3] were 298 nM, 3030 nM and 2490 nM, respectively.
In the case of CUGUCCU, the EC50 in data set [2] was 2620 nM.
As for UAUUUAU, the values for the EC50 in data set [1] and in data set [3] were 1200 nM and 93.1 nM, respectively.
